Results reported in US20240382588A1 (published 2024).

Key:
Assay in all cases: multimer staining
[1] = molecular target: T1, MPO (myeloperoxidase) peptide on HLA-DRA*01:01 / HLA-DRB1*04:05 (human)
T1 peptide: MVQIITYRDYLPLVL

[2] = molecular target: T2, SmD1 (Smith protein) peptide on HLA-DRA*01:01 / HLA-DRB1*03:01 (human)
T2 peptide: TLLVDVEPKVKSKKR

[3] = molecular target: T3, Ro60 peptide on HLA-DRA*01:01 / HLA-DRB1*03:01 (human)
T3 peptide: KRFLLAVDVSASMNQ

- binding result [1]: recognises
- binding result [2]: recognises
- binding result [3]: recognises
B1: Promiscuous self-TCR (TCR, V domains shown)
Valpha: RKEVEQDPGPFNVPEGATVAFNCTYSNSASQSFFWYRQDCRKEPKLLMSVYSSGNEDGRFTAQLNRASQYISLLIRDSKLSDSATYLCVVPPGGGFKTIFGAGTRLFVKA
Vbeta: EAQVTQNPRYLITVTGKKLTVTCSQNMNHEYMSWYRQDPGLGLRQIYYSMNVEVTDKGDVPEGYKVSRKEKRNFPLILESPSPNQTSLYFCASRTRTASYGYTFGSGTRLTVV
